Data on 48 variants can be found in the Human Domainome abundance scans (Beltran et al. 2025).

Sequences and labels used below:
B1: POU domain, class 6, transcription factor 2, residues 609 to 663; numbered along this chain, P78424 (parent)
chain: KRRTSFTPQALEILNAHFEKNTHPSGQEMTEIAEKLNYDREVVRVWFCNKRQALK

± gives the uncertainty stated by the source.

In the data set the parent is B1. Put plainly: abundance fitness (aPCA) (normalised: wild type 0, dead -1); higher = more abundant; growth selection in yeast, the domain comes from the species named. As to conditions: Homo sapiens.
As to KRRTNFTPQALEILNAHFEKNTHPSGQEMTEIAEKLNYDREVVRVWFCNKRQALK [S5N], the abundance fitness is -0.075 ± 0.12.

As for KRRTMFTPQALEILNAHFEKNTHPSGQEMTEIAEKLNYDREVVRVWFCNKRQALK [S5M], the abundance fitness is -0.127 ± 0.1. Consider KRRTTFTPQALEILNAHFEKNTHPSGQEMTEIAEKLNYDREVVRVWFCNKRQALK [S5T], for which the abundance fitness was found to be 0.12 ± 0.11. With KRRTFFTPQALEILNAHFEKNTHPSGQEMTEIAEKLNYDREVVRVWFCNKRQALK [S5F], the abundance fitness is -0.031 ± 0.13. With KRRTYFTPQALEILNAHFEKNTHPSGQEMTEIAEKLNYDREVVRVWFCNKRQALK [S5Y] the figure was -0.147 ± 0.1. For the variant KRRTPFTPQALEILNAHFEKNTHPSGQEMTEIAEKLNYDREVVRVWFCNKRQALK [S5P], the abundance fitness is -0.032 ± 0.12. Then KRRTVFTPQALEILNAHFEKNTHPSGQEMTEIAEKLNYDREVVRVWFCNKRQALK [S5V], with 0.015 ± 0.074; and KRRTWFTPQALEILNAHFEKNTHPSGQEMTEIAEKLNYDREVVRVWFCNKRQALK [S5W], with -0.11 ± 0.082. Then KRRTEFTPQALEILNAHFEKNTHPSGQEMTEIAEKLNYDREVVRVWFCNKRQALK [S5E], with 0.083 ± 0.079; and KRRTHFTPQALEILNAHFEKNTHPSGQEMTEIAEKLNYDREVVRVWFCNKRQALK [S5H], with -0.245 ± 0.13; and KRRTAFTPQALEILNAHFEKNTHPSGQEMTEIAEKLNYDREVVRVWFCNKRQALK [S5A], with 0.019 ± 0.093.

Regarding KRRTQFTPQALEILNAHFEKNTHPSGQEMTEIAEKLNYDREVVRVWFCNKRQALK [S5Q], the abundance fitness stood at 0.221 ± 0.14. As for KRRTCFTPQALEILNAHFEKNTHPSGQEMTEIAEKLNYDREVVRVWFCNKRQALK [S5C], the abundance fitness is -0.039 ± 0.084.

For the variant KRRTRFTPQALEILNAHFEKNTHPSGQEMTEIAEKLNYDREVVRVWFCNKRQALK [S5R], the abundance fitness was -0.113 ± 0.058.

Turning to KRRTGFTPQALEILNAHFEKNTHPSGQEMTEIAEKLNYDREVVRVWFCNKRQALK [S5G], the abundance fitness amounted to 0.041 ± 0.055. For KRRTKFTPQALEILNAHFEKNTHPSGQEMTEIAEKLNYDREVVRVWFCNKRQALK [S5K], the abundance fitness was determined as 0.035 ± 0.12. With KRRTIFTPQALEILNAHFEKNTHPSGQEMTEIAEKLNYDREVVRVWFCNKRQALK [S5I] the figure was 0.079 ± 0.12; with KRRTLFTPQALEILNAHFEKNTHPSGQEMTEIAEKLNYDREVVRVWFCNKRQALK [S5L], -0.06 ± 0.071. Then KRRTDFTPQALEILNAHFEKNTHPSGQEMTEIAEKLNYDREVVRVWFCNKRQALK [S5D], with -0.063 ± 0.097; and KRRTSFDPQALEILNAHFEKNTHPSGQEMTEIAEKLNYDREVVRVWFCNKRQALK [T7D], with -0.402 ± 0.22. With KRRTSFVPQALEILNAHFEKNTHPSGQEMTEIAEKLNYDREVVRVWFCNKRQALK [T7V] the figure was -0.403 ± 0.098; with KRRTSFLPQALEILNAHFEKNTHPSGQEMTEIAEKLNYDREVVRVWFCNKRQALK [T7L], -0.288 ± 0.08; with KRRTSFKPQALEILNAHFEKNTHPSGQEMTEIAEKLNYDREVVRVWFCNKRQALK [T7K], -0.565 ± 0.17.

KRRTSFMPQALEILNAHFEKNTHPSGQEMTEIAEKLNYDREVVRVWFCNKRQALK [T7M]: the abundance fitness was -0.395 ± 0.14.

For KRRTSFHPQALEILNAHFEKNTHPSGQEMTEIAEKLNYDREVVRVWFCNKRQALK [T7H], the abundance fitness is -0.226 ± 0.18. Then KRRTSFCPQALEILNAHFEKNTHPSGQEMTEIAEKLNYDREVVRVWFCNKRQALK [T7C], with -0.079 ± 0.1; and KRRTSFAPQALEILNAHFEKNTHPSGQEMTEIAEKLNYDREVVRVWFCNKRQALK [T7A], with -0.2 ± 0.18.

Turning to KRRTSFNPQALEILNAHFEKNTHPSGQEMTEIAEKLNYDREVVRVWFCNKRQALK [T7N], the abundance fitness is -0.303 ± 0.3. Then KRRTSFPPQALEILNAHFEKNTHPSGQEMTEIAEKLNYDREVVRVWFCNKRQALK [T7P], with 0.04 ± 0.13. On to KRRTSFRPQALEILNAHFEKNTHPSGQEMTEIAEKLNYDREVVRVWFCNKRQALK [T7R], for which the abundance fitness was -0.321 ± 0.087. Consider KRRTSFEPQALEILNAHFEKNTHPSGQEMTEIAEKLNYDREVVRVWFCNKRQALK [T7E], for which the abundance fitness is 0.05 ± 0.13. On to KRRTSFIPQALEILNAHFEKNTHPSGQEMTEIAEKLNYDREVVRVWFCNKRQALK [T7I], for which the abundance fitness is -0.615 ± 0.2. Then KRRTSFFPQALEILNAHFEKNTHPSGQEMTEIAEKLNYDREVVRVWFCNKRQALK [T7F], with -0.867 ± 0.26; and KRRTSFGPQALEILNAHFEKNTHPSGQEMTEIAEKLNYDREVVRVWFCNKRQALK [T7G], with -0.007 ± 0.093; and KRRTSFYPQALEILNAHFEKNTHPSGQEMTEIAEKLNYDREVVRVWFCNKRQALK [T7Y], with -0.637 ± 0.17. With KRRTSFSPQALEILNAHFEKNTHPSGQEMTEIAEKLNYDREVVRVWFCNKRQALK [T7S] the figure was -0.042 ± 0.09. As to KRRTSFWPQALEILNAHFEKNTHPSGQEMTEIAEKLNYDREVVRVWFCNKRQALK [T7W], the abundance fitness was -0.409 ± 0.089. With KRRTSATPQALEILNAHFEKNTHPSGQEMTEIAEKLNYDREVVRVWFCNKRQALK [F6A] the figure was -0.354 ± 0.092; with KRRTSYTPQALEILNAHFEKNTHPSGQEMTEIAEKLNYDREVVRVWFCNKRQALK [F6Y], -0.187 ± 0.14; with KRRTSSTPQALEILNAHFEKNTHPSGQEMTEIAEKLNYDREVVRVWFCNKRQALK [F6S], -0.415 ± 0.086. Take KRRTSHTPQALEILNAHFEKNTHPSGQEMTEIAEKLNYDREVVRVWFCNKRQALK [F6H]: the abundance fitness is -0.272 ± 0.15. As to KRRTSITPQALEILNAHFEKNTHPSGQEMTEIAEKLNYDREVVRVWFCNKRQALK [F6I], the abundance fitness came out at 0.092 ± 0.1. For the variant KRRTSCTPQALEILNAHFEKNTHPSGQEMTEIAEKLNYDREVVRVWFCNKRQALK [F6C], the abundance fitness is -0.15 ± 0.09. Then KRRTSLTPQALEILNAHFEKNTHPSGQEMTEIAEKLNYDREVVRVWFCNKRQALK [F6L], with 0.135 ± 0.076; and KRRTSPTPQALEILNAHFEKNTHPSGQEMTEIAEKLNYDREVVRVWFCNKRQALK [F6P], with 0.039 ± 0.17. With KRRTSTTPQALEILNAHFEKNTHPSGQEMTEIAEKLNYDREVVRVWFCNKRQALK [F6T] the figure was -0.134 ± 0.11; with KRRTSETPQALEILNAHFEKNTHPSGQEMTEIAEKLNYDREVVRVWFCNKRQALK [F6E], -0.191 ± 0.11. Take KRRTSDTPQALEILNAHFEKNTHPSGQEMTEIAEKLNYDREVVRVWFCNKRQALK [F6D]: the abundance fitness was -0.246 ± 0.13.
